# Results from patent US20260015399A1 (Boehringer Ingelheim, published 2026).
# *1 amine or outer side, *2 acyl side, *3 side chain or, on linkers, in order; H or OH if unused. Side-chain parts run from the residue outwards. The star is where a group is joined. C18 diacid = O=C(O)CCCCCCCCCCCCCCCCC(=O)*; γGlu = O=C(O)[C@H](CCC(=O)[*:2])N[*:1]; Isovaleryl = CC(C)CC(=O)*; Ahx = NCCCCCC(=O)O
# T1: human NPY2 receptor (human, UniProt P49146 1-381)
# T1 sequence (looked up): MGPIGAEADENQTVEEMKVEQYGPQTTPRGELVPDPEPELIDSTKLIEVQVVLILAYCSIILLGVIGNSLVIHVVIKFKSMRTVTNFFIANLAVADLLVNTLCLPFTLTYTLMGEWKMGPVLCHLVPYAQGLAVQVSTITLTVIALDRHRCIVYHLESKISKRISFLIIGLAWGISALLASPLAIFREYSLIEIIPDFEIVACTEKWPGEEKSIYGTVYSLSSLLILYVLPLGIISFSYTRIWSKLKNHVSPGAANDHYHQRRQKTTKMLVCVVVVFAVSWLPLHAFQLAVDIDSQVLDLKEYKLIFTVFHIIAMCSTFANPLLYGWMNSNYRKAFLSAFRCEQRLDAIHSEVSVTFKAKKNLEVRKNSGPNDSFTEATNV
# T2: human NPY1 receptor (human, UniProt P25929 1-384)
# T2 sequence (looked up): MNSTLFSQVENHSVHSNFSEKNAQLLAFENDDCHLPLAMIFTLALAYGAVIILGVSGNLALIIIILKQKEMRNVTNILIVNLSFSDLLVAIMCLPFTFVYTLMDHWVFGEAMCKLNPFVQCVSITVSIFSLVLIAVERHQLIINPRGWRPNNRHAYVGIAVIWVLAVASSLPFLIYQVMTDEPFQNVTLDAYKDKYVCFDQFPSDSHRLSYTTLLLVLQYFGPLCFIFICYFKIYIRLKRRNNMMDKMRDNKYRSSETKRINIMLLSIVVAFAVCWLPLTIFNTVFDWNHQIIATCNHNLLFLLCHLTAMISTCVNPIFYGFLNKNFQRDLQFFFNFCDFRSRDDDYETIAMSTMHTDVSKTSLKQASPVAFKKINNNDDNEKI
# T3: human NPY5 receptor (human, UniProt Q15761 1-445)
# T3 sequence (looked up): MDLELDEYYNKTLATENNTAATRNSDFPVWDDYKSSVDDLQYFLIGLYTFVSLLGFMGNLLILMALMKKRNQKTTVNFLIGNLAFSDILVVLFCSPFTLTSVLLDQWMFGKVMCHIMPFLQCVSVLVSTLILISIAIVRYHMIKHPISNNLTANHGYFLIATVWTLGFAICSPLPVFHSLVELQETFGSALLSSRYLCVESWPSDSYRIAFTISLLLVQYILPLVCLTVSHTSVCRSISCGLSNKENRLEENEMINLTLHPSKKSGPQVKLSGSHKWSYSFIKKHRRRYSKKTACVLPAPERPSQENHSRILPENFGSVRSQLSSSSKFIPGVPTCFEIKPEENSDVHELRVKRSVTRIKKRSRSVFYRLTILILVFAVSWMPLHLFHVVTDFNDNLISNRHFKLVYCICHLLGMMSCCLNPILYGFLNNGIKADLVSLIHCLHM
# Assays:
# [1] = biological target: T1, human NPY2 receptor; experiment: cell-based or functional assay
# [2] = biological target: T2, human NPY1 receptor; experiment: cell-based or functional assay
# [3] = biological target: human NPY4 receptor (human, UniProt P50391 1-375); experiment: cell-based or functional assay
# [4] = biological target: T3, human NPY5 receptor; experiment: cell-based or functional assay
# [5] = biological target: T1, human NPY2 receptor; experiment: RLB: displacement of 125I-PYY(1-36) from hNPY2R membranes
# Sequence of human NPY4 receptor (P50391 whole entry): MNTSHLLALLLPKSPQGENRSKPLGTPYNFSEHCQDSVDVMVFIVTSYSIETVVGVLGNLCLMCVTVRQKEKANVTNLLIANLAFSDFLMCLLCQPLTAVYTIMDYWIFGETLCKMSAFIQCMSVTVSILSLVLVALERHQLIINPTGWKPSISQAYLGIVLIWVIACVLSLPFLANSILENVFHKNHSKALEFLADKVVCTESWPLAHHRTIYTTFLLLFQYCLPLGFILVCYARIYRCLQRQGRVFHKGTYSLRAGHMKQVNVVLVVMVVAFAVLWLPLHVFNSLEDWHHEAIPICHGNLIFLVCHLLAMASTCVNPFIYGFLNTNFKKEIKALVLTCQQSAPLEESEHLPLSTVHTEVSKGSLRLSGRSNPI
"EC50, HTRF cAMP Gi assay [1] [nM]","EC50, HTRF cAMP Gi assay [2] [nM]","EC50, HTRF cAMP Gi assay [3] [nM]","EC50, HTRF cAMP Gi assay [4] [nM]",Ki [5] [nM],Binder
0.136,> 5000,> 5000,> 5000,1.4,Isovaleryl-APEK([Ahx-γGlu-C18 diacid])PEADASPEEIQRYYISLRHYYNWLTRQRY-NH2 (SMILES CC[C@H](C)[C@H](NC(=O)[C@H](Cc1ccc(O)cc1)NC(=O)[C@H](Cc1ccc(O)cc1)NC(=O)[C@H](CCCNC(=N)N)NC(=O)[C@H](CCC(N)=O)NC(=O)[C@@H](NC(=O)[C@H](CCC(=O)O)NC(=O)[C@H](CCC(=O)O)NC(=O)[C@@H]1CCCN1C(=O)[C@H](CO)NC(=O)[C@H](C)NC(=O)[C@H](CC(=O)O)NC(=O)[C@H](C)NC(=O)[C@H](CCC(=O)O)NC(=O)[C@@H]1CCCN1C(=O)[C@H](CCCCNC(=O)CCCCCNC(=O)CC[C@H](NC(=O)CCCCCCCCCCCCCCCCC(=O)O)C(=O)O)NC(=O)[C@H](CCC(=O)O)NC(=O)[C@@H]1CCCN1C(=O)[C@H](C)NC(=O)CC(C)C)[C@@H](C)CC)C(=O)N[C@@H](CO)C(=O)N[C@@H](CC(C)C)C(=O)N[C@@H](CCCNC(=N)N)C(=O)N[C@@H](Cc1c[nH]cn1)C(=O)N[C@@H](Cc1ccc(O)cc1)C(=O)N[C@@H](Cc1ccc(O)cc1)C(=O)N[C@@H](CC(N)=O)C(=O)N[C@@H](Cc1c[nH]c2ccccc12)C(=O)N[C@@H](CC(C)C)C(=O)N[C@H](C(=O)N[C@@H](CCCNC(=N)N)C(=O)N[C@@H](CCC(N)=O)C(=O)N[C@@H](CCCNC(=N)N)C(=O)N[C@@H](Cc1ccc(O)cc1)C(N)=O)[C@@H](C)O) [Compound 11]
0.079,–,–,> 5000,0.81,Isovaleryl-APEK([Ahx-γGlu-C18 diacid])PPEDASPEEIQRYYVSLRHYYNWLTRQRY-NH2 (SMILES CC[C@H](C)[C@H](NC(=O)[C@H](CCC(=O)O)NC(=O)[C@H](CCC(=O)O)NC(=O)[C@@H]1CCCN1C(=O)[C@H](CO)NC(=O)[C@H](C)NC(=O)[C@H](CC(=O)O)NC(=O)[C@H](CCC(=O)O)NC(=O)[C@@H]1CCCN1C(=O)[C@@H]1CCCN1C(=O)[C@H](CCCCNC(=O)CCCCCNC(=O)CC[C@H](NC(=O)CCCCCCCCCCCCCCCCC(=O)O)C(=O)O)NC(=O)[C@H](CCC(=O)O)NC(=O)[C@@H]1CCCN1C(=O)[C@H](C)NC(=O)CC(C)C)C(=O)N[C@@H](CCC(N)=O)C(=O)N[C@@H](CCCNC(=N)N)C(=O)N[C@@H](Cc1ccc(O)cc1)C(=O)N[C@@H](Cc1ccc(O)cc1)C(=O)N[C@H](C(=O)N[C@@H](CO)C(=O)N[C@@H](CC(C)C)C(=O)N[C@@H](CCCNC(=N)N)C(=O)N[C@@H](Cc1c[nH]cn1)C(=O)N[C@@H](Cc1ccc(O)cc1)C(=O)N[C@@H](Cc1ccc(O)cc1)C(=O)N[C@@H](CC(N)=O)C(=O)N[C@@H](Cc1c[nH]c2ccccc12)C(=O)N[C@@H](CC(C)C)C(=O)N[C@H](C(=O)N[C@@H](CCCNC(=N)N)C(=O)N[C@@H](CCC(N)=O)C(=O)N[C@@H](CCCNC(=N)N)C(=O)N[C@@H](Cc1ccc(O)cc1)C(N)=O)[C@@H](C)O)C(C)C) [Compound 172]
–,> 5000,> 5000,> 5000,2.73,Isovaleryl-APEK([Ahx-γGlu-C18 diacid])PEAEASPEELQRYYVSLRHYYNWLTRQRY-NH2 [Compound 122]
0.086,–,–,> 5000,3.57,Isovaleryl-APEK([Ahx-γGlu-C18 diacid])PEADASPEELQRYYVSLRHYYNWLTRQRY-NH2 (SMILES CC(C)CC(=O)N[C@@H](C)C(=O)N1CCC[C@H]1C(=O)N[C@@H](CCC(=O)O)C(=O)N[C@@H](CCCCNC(=O)CCCCCNC(=O)CC[C@H](NC(=O)CCCCCCCCCCCCCCCCC(=O)O)C(=O)O)C(=O)N1CCC[C@H]1C(=O)N[C@@H](CCC(=O)O)C(=O)N[C@@H](C)C(=O)N[C@@H](CC(=O)O)C(=O)N[C@@H](C)C(=O)N[C@@H](CO)C(=O)N1CCC[C@H]1C(=O)N[C@@H](CCC(=O)O)C(=O)N[C@@H](CCC(=O)O)C(=O)N[C@@H](CC(C)C)C(=O)N[C@@H](CCC(N)=O)C(=O)N[C@@H](CCCNC(=N)N)C(=O)N[C@@H](Cc1ccc(O)cc1)C(=O)N[C@@H](Cc1ccc(O)cc1)C(=O)N[C@H](C(=O)N[C@@H](CO)C(=O)N[C@@H](CC(C)C)C(=O)N[C@@H](CCCNC(=N)N)C(=O)N[C@@H](Cc1c[nH]cn1)C(=O)N[C@@H](Cc1ccc(O)cc1)C(=O)N[C@@H](Cc1ccc(O)cc1)C(=O)N[C@@H](CC(N)=O)C(=O)N[C@@H](Cc1c[nH]c2ccccc12)C(=O)N[C@@H](CC(C)C)C(=O)N[C@H](C(=O)N[C@@H](CCCNC(=N)N)C(=O)N[C@@H](CCC(N)=O)C(=O)N[C@@H](CCCNC(=N)N)C(=O)N[C@@H](Cc1ccc(O)cc1)C(N)=O)[C@@H](C)O)C(C)C) [Compound 196]
0.447,–,–,> 5000,18.8,Isovaleryl-APEK([Ahx-γGlu-C18 diacid])AEEDASPEEIQRYYVSLRHYYNWLTRQRY-NH2 (SMILES CC[C@H](C)[C@H](NC(=O)[C@H](CCC(=O)O)NC(=O)[C@H](CCC(=O)O)NC(=O)[C@@H]1CCCN1C(=O)[C@H](CO)NC(=O)[C@H](C)NC(=O)[C@H](CC(=O)O)NC(=O)[C@H](CCC(=O)O)NC(=O)[C@H](CCC(=O)O)NC(=O)[C@H](C)NC(=O)[C@H](CCCCNC(=O)CCCCCNC(=O)CC[C@H](NC(=O)CCCCCCCCCCCCCCCCC(=O)O)C(=O)O)NC(=O)[C@H](CCC(=O)O)NC(=O)[C@@H]1CCCN1C(=O)[C@H](C)NC(=O)CC(C)C)C(=O)N[C@@H](CCC(N)=O)C(=O)N[C@@H](CCCNC(=N)N)C(=O)N[C@@H](Cc1ccc(O)cc1)C(=O)N[C@@H](Cc1ccc(O)cc1)C(=O)N[C@H](C(=O)N[C@@H](CO)C(=O)N[C@@H](CC(C)C)C(=O)N[C@@H](CCCNC(=N)N)C(=O)N[C@@H](Cc1c[nH]cn1)C(=O)N[C@@H](Cc1ccc(O)cc1)C(=O)N[C@@H](Cc1ccc(O)cc1)C(=O)N[C@@H](CC(N)=O)C(=O)N[C@@H](Cc1c[nH]c2ccccc12)C(=O)N[C@@H](CC(C)C)C(=O)N[C@H](C(=O)N[C@@H](CCCNC(=N)N)C(=O)N[C@@H](CCC(N)=O)C(=O)N[C@@H](CCCNC(=N)N)C(=O)N[C@@H](Cc1ccc(O)cc1)C(N)=O)[C@@H](C)O)C(C)C) [Compound 183]
0.146,–,–,> 5000,5.04,Isovaleryl-APEK([Ahx-γGlu-C18 diacid])PEEDASPEEIQRYYVSLRHYYNWLTRQRY-NH2 (SMILES CC[C@H](C)[C@H](NC(=O)[C@H](CCC(=O)O)NC(=O)[C@H](CCC(=O)O)NC(=O)[C@@H]1CCCN1C(=O)[C@H](CO)NC(=O)[C@H](C)NC(=O)[C@H](CC(=O)O)NC(=O)[C@H](CCC(=O)O)NC(=O)[C@H](CCC(=O)O)NC(=O)[C@@H]1CCCN1C(=O)[C@H](CCCCNC(=O)CCCCCNC(=O)CC[C@H](NC(=O)CCCCCCCCCCCCCCCCC(=O)O)C(=O)O)NC(=O)[C@H](CCC(=O)O)NC(=O)[C@@H]1CCCN1C(=O)[C@H](C)NC(=O)CC(C)C)C(=O)N[C@@H](CCC(N)=O)C(=O)N[C@@H](CCCNC(=N)N)C(=O)N[C@@H](Cc1ccc(O)cc1)C(=O)N[C@@H](Cc1ccc(O)cc1)C(=O)N[C@H](C(=O)N[C@@H](CO)C(=O)N[C@@H](CC(C)C)C(=O)N[C@@H](CCCNC(=N)N)C(=O)N[C@@H](Cc1c[nH]cn1)C(=O)N[C@@H](Cc1ccc(O)cc1)C(=O)N[C@@H](Cc1ccc(O)cc1)C(=O)N[C@@H](CC(N)=O)C(=O)N[C@@H](Cc1c[nH]c2ccccc12)C(=O)N[C@@H](CC(C)C)C(=O)N[C@H](C(=O)N[C@@H](CCCNC(=N)N)C(=O)N[C@@H](CCC(N)=O)C(=O)N[C@@H](CCCNC(=N)N)C(=O)N[C@@H](Cc1ccc(O)cc1)C(N)=O)[C@@H](C)O)C(C)C) [Compound 147]
